Experimental data taken from patent US7670806B2, “ADP-ribosyl acceptor hydrolase 3 (ARH3) polypeptides and methods of use” (The United States of America as represented by the …, priority 2005, dated 2010).
Values joined by “and” are separate entries in the source; they are usually repeats but may differ in a detail not shown here. Equal entries are not always repeated.

Columns and labels:
[1] = Hydrolysis of O-acetyl-[14C]ADP-ribose by ARH proteins / PARG (RP-HPLC); format: biochemical
Experimental: FIG. 13A is a graph illustrating the results from incubation of 1.5 pmol of mouse ARH3 with or without 5 mM DTT and/or 10 mM MgCl2 as described in FIG. 11B with incubation for 1 h at 30° C. FIG. 13B is a graph illustrating the results from incubation of 1.5 pmol of wild type or mutant human (D77-78) ARH3 or 20 mU of PARG for 2 h at 30° C. *D77,78, assays incubated with 15 pmol of mutant human ARH3 (D77, D78).
FIG. 14A is a graph of the results from incubation with the indicated amount of mouse ARH1, 2, or 3 for 2 h at 30° C. FIG. 14B is a graph of the results from incubation with 230 pmol of mouse ARH1 at 30° C. for the indicated time.
Mouse ARH3 (2 pmol) and 2.5 μM O-acetyl-[^14C]ADP-ribose (5,000 cpm) in 200 μl of buffer containing 50 mM potassium phosphate (pH 7.0), 10 mM MgCl2 and 5 mM DTT were incubated for 2 h at 30° C., before separation of substrate and products using RP-HPLC as described below.
Hydrolysis of O-acetyl-[^14C]ADP-ribose catalyzed by ARH3. Assays containing the indicated concentration of O-acetyl-[^14C]-ADP-ribose (0.1 to 2 nmol, 1,000 to 20,000 cpm) and 1.5 pmol of ARH3 in 200 μl of buffer (50 mM KPO4 (pH 7.0), 10 mM MgCl2, 5 mM DTT) were incubated at 30° C. for 20 min. Substrate and products were separated using RP-HPLC. Amounts of product were corrected for ADP-ribose produced in the absence of ARH3 before calculation of hydrolysis rates.
Because O-acetyl-ADP-ribose was known to be hydrolyzed at alkaline pH Tanny and Moazed (2001), Proc Natl Acad Sci USA. 98(2):415-20, Epub Dec. 26, 2000), it was generated at pH 7.0 in the presence of [^14C-adenine] β-NAD, Sir2, and acetylated histone H3 peptide (FIG. 11A), and the products of Sir2 and ARH3 were analyzed using reverse-phase HPLC at the same pH (FIGS. 11A,B). The products of the ARH3-catalyzed reaction were also analyzed by high resolution-polyacrylamide gel electrophoresis (FIG. 11C). O-acetyl-[^14C]ADP-ribose hydrolase activity was time and ARH3 dependent (FIG. 12) and essentially completely dependent on Mg^2+ (FIG. 13A).
O-acetyl-ADP-ribose hydrolysis by ARH1 was time and ARH1 dependent (FIG. 14b).

NIH3T3 cells = assay: Effect of H2O2 on ARH3-transfected NIH3T3 cells (Cell-Counting Kit-8); format: cell-based; conditions: stably ARH3 cDNA-transfected NIH3T3 cells vs empty vector; H2O2 for 24 hours
Experimental: FIG. 16 is a line graph showing the effect of H2O2 on ARH3-transfected NIH3T3 cells. NIH3T3 cells were transfected with ARH3 cDNA using Lipofectamin transfection reagent (INVITROGEN™). After transfection, the cells were cultured and exposed to 200 μg/ml of Hygromycin G (INVITROGEN™) for 3-4 weeks to select stably transfected clones. Positive clones derived from single Hygromycin G-resistant cells were then isolated by cloning rings and further grown under the same conditions. As controls, NIH3T3 cells were transfected with an empty pcDNA3.1 vector (INVITROGEN™) and subjected to the same selection and cloning procedures as described above. The cells were plated in 96-well plates at 1×10^4 cells/well, and incubated for 24 h at 37° C. in a humidified incubator. The cells were then challenged at the indicated concentrations of H2O2 for 24 hours. Cell survival was determined by using Cell-Counting Kit-8 (Dojindo). The experiments were repeated twice with similar results.
To test the role of ARH3 in the cellular response to oxidative stress, NIH3T3 cells were transfected with ARH3 cDNA using Lipofectamin transfection reagent (Invitrogen). […]
The cells were plated in 96-well plates at 1×10^4 cells/well, and incubated for 24 hours at 37° C. in a humidified incubator. […] Cell viability was determined by using Cell-Counting Kit-8 (Dojindo). […]

B1: ARH3: 39-kDa recombinant protein having both poly(ADP-ribose) glycohydrolase activity and O-acetyl-ADP-ribose hydrolase activity (protein, listed as Homo sapiens)
chain: MAAAAMAAAAGGGAGAARSLSRFRGCLAGALLGDCVGSFYEAHDTVDLTSVLRHVQSLEPDPGTPGSERTEALYYTDDTAMARALVQSLLAKEAFDEVDMAHRFAQEYKKDPDRGYGAGVVTVFKKLLNPKCRDVFEPARAQFNGKGSYGNGGAMRVAGISLAYSSVQDVQKFARLSAQLTHASSLGYNGAILQALAVHLALQGESSSEHFLKQLLGHMEDLEGDAQSVLDARELGMEERPYSSRLKKIGELLDQASVTREEVVSELGNGIAAFESVPTAIYCFLRCMEPDPEIPSAFNSLQRTLIYSISLGGDTDTIATMAGAIAGAYYGMDQVPESWQQSCEGYEETDILAQSLHRVFQKS
[1]; 1.5 pmol ARH3, 30° C., 20 min, pH 7.0, 10 mM MgCl2, 5 mM DTT
  Km: 7.4 ± 0.7 µM
[1]; 1.5 pmol ARH3, 30° C., 20 min, pH 7.0, 10 mM MgCl2, 5 mM DTT, means ±½ range of duplicates
  Vmax, O-acetyl-ADP-ribose hydrolysis: 173 ± 8.4 nmol/min/mg
[1]; comparison with mNudT5
  kcat, O-acetyl-ADP-ribose hydrolysis: 0.0052 ± 0.0033 s⁻¹
[1]; times / -fold the rate with ARH1, recombinant mouse proteins, 2 h at 30° C.
  Rate of O-acetyl-ADP-ribose hydrolysis relative to that of ARH1: 250 and > 250
NIH3T3 cells
  Cell viability after H2O2 challenge: significantly reduced the toxic effect of H2O2
